Results published in the DeepSol protein solubility set.

Experiment: soluble on expression in E. coli; label from the status in PepcDB or PDB records

Sequence: MGSDKIHHHHHHMPDLFVTNFNRNFTGVSATAANVIRQQVATHDLALVGHALPGCPAPISARAARALSRTPPPGKPFAIWHVRRNPEMQTAIWARDVLRLPIRIVFTSAAIRRHSAFPRWLISRMDAVVATSDAAASFVPHVRAVVPHGVDTDRFTPAPDRPAAWAAQGYGGSFGIATIGRVRPEKGTDLFVEAMLRLLPDMPGAVALVVGRATKEHQKFALTLKDKVQRAGMIDRIRFIDEVPPDRLPDLMRALSLVVQLPRYEGYGMVPLEAMASGVPFVGSDTGFFREFSAQGRAGRVVPLENAGLGAEAARALLADEDVHGAAALAAREIAVESFSAAREAAGIEAVYQQLWSQAAPGA
- soluble on expression in E. coli: not soluble

Sequence: MSLTIAVYGLGKMGLPLAAVFADHGANVIGVDINERVVEMVNKGENHVKEEPGLDELVRRNVEEGRLRATTDGVWAAKSADVMIILVPTLADDRGNLKLEPVYDVANKIAKGLEKGDIVITEATMPPGTTESLIPILEKSGLKLGEFGLAHAPERTMTGTAIRDITGQYPKIVGASDERTLEAVIGLYETINRKGVIPMSSIKAAEAVKVFEGVYRDVNIALANELALWCEEHGLDALEIFNAANTQPYCHLHMPGAGVGGHCIPVYPWFVISLAKKTNPRLIKTAREINDSMPHHIVELTIRGLNEVGKPLKGSNVLVLGLTFRGGVREFTKSPAIDVIKELKEWGARVFTYDPLCNEEDAKRFGAEWKEDFKDVDAIVIVTDHKEFKDLNLEEIAKQVRNRVIVDGRNILDPRKAEKLGFVYLRVGRVEGHHHHHH
- soluble on expression in E. coli: soluble

Sequence: GHGHMHGRLKVKTSEEQAEAKRLEREQKLKLYQSATQAVFQKRQAGELDESVLELTSQILGANPDFATLWNCRREVLQHLETEKSPEESAALVKAELGFLESCLRVNPKSYGTWHHRCWLLSRLPEPNWARELELCARFLEADERNFHCWDYRRFVAAQAAVAPAEELAFTDSLITRNFSNYSSWHYRSCLLPQLHPQPDSGPQGRLPENVLLKELELVQNAFFTDPNDQSAWFYHRWLLGAGSGRCELSVEKSTVLQSELESCKELQELEPENKWCLLTIILLMRALDPLLYEKETLQYFSTLKAVDPMRAAYLDDLRSKFLLENSVLKMEYA
- soluble on expression in E. coli: soluble

Sequence: MAHHHHHHMNEEILKNIKVNNNFLEFEEIIKDINTPFNFIDLVEIPCVPVVDLYGLSLLNNEAYLEYKSGLREDKLNADDEIKLTLFFAVKLYKKNIIRIKFPSYYDIIETLKFDPVSVTIGLFNQFYFETAYELCNLLPINEWPSTNFYDILRKAEKTRIHFLINNKTKLNSYFLEGLTNKEKKIYKYFLEGTSKEREKLNKETTLFHFYEKEKC
- soluble on expression in E. coli: not soluble

Sequence: QGGPVEILPYLFLGSCSHSSDLQGLQACGITAVLNVSASCPNHFEGLFRYKSIPVEDNQMVEISAWFQEAIGFIDWVKNSGGRVLVHSQAGISRSATICLAYLMQSRRVRLDEAFDFVKQRRGVISPNFSFMGQLLQFETQVLCH
- soluble on expression in E. coli: soluble

Sequence: MSGILALGAYVPERVMTNADFEAYLDTSDEWIVTRTGIKERRVAAEDEYTSDLAFKAVEDLLRRHPGALEGVDAVIVATNTPDALFPDTAALVQARFGLKAFAYDLLAGCPGWIYALAQAHALVEAGLAQKVLAVGAEALSKIIDWNDRATAVLFGDGGGAAVVGKVREGYGFRSFVLGADGTGAKELYHACVAPRLPDGTSMKNRLYMNGREVFKFAVRVMNTATLEAIEKAGLTPEDIRLFVPHQANLRIIDAARERLGLPWERVAVNVDRYGNTSTASIPLALKEALDAGRIREGDHVLLVSFGAGLTWAAAVLTWGGA
- soluble on expression in E. coli: soluble

Sequence: MKRLADVKISTLDLVPVRHDKGPADSLRNSLNLAQHVEKLGYNRFWVAEHHNMDGIASSATSVLLAYLAGGTSTIRVGAGGIMLPNHAPLVVAEQFGTLASLYPGRIDLGLGRAPGSDQMTARALRRERSGSAEDFPDDVTELMEYLGPRTPDQKVIAVPGSDTNVPIWLLGSSLFSAQLAGMRGLPYAFASHFAPRYMHEAIRVYRNHFQPSAVLDKPYVMLGVPLSAADTDEHAEYLATSVYQRILALMRGHSLMQRPPVESMDGLWLPHEREAVASFLGLAMVGGPDKIRAKLDVLLEQTDADELIFTCDMYEHEDRLRSYEILAQVAQG
- soluble on expression in E. coli: not soluble

Sequence: MAAMFSNTRSVASSSGHIVEFKAGRSRLEAGSGDTMRKVVAEPKKGLVFIKQSNDMLIHFCWKDRETGAVVDDLIIFPDDAEFKAVPGCPDGKVYMLKFKSGDMKLFWIQDSTPDVDKDLVKKVTDALNKPPTSRPAASRSAGSNANTDRQSAGGSLISSSDMNAPLGGIDQGQLMSLIQSLQGGNSDTLPISSVPRGEDASSEADCEPSTNAAEEGSSNPLSLNNPAIQQIFNNLGRSQKKEVAVSLATALSNETVAEVARNHAEELAPHLPTSDDPARELSETVRTPQFRQAADTLGHALQTGQLGPVVAQFGMDEATVGSANQGDIRGFAANLTKAEGGEDAAKTQNSDDDATREPEPKRNRPDNEDMDVD
- soluble on expression in E. coli: not soluble

Sequence: MDPACASVDNSKSDPLTDSYPQKYRYSFHRNCQRIMLGVNLKRKNSHYTKGATMTATHNHYLAVLGEDFVAQQYANEGYDITARNVSFSVGEIDIIATSPQGEVVFIEVKTRSSSLMDAAEAVTPTKMRKIHRAASKWLQGKPFADIRFDVVAVHVDEYGELDMTRYQGVEHGAC
- soluble on expression in E. coli: not soluble

Sequence: MASPRELTQNPLKKIFMPYSNGRPALHASQRGVCMTNCPTLIVMVGLPARGKTYISKKLTRYLNFIGVPTREFNVGQYRRDMVKTYKSFEFFLPDNEEGLKIRKQCALAALNDVRKFLSEEGGHVAVFDATNTTRERRAMIFNFGEQNGYKTFFVESICVDPEVIAANIVQVKLGSPDYVNRDSDEATEDFMRRIECYENSYESLDEEQDRDLSYIKIMDVGQSYVVNRVADHIQSRIVYYLMNIHVTPRSIYLCRAGESELNLKGRIGGDPGLSPRGREFSKHLAQFISDQNIKDLKVFTSQMKRTIQTAEALSVPYEQFKVLNEIDAGVCEEMTYEEIQDHYPLEFALRDQDKYRYRYPKGESYEDLVQRLEPVIMELERQENVLVICHQAVMRCLLAYFLDKAAEELPYLKCPLHTVLKLTPVAYGCKVESIFLNVAAVNTHRDRPQNVDISRPSEEALVTVPAHQ
- soluble on expression in E. coli: soluble

Sequence: MVSSDVPKTQRALIFESYGGPLEIKQLPIPQPNEDELLVKMEYSGICHSDVHTWLGDFHYVSKCPMIGGHEGAGSVISVGSKVKNWQIGDKVGIKLVQGNCLNCEYCQTGHEPLCPHVWNIGVQKYGTFQEYATIRDVDAIKIPKSMNMAAAAPVLCGGVTAYKALKESEVKSGQIVAVTGAGGGLGSFAIQYARAMGMRVVAEDIVAHIREITDGGAHGVVNFAAAKVPMEKALEYVRKRGTVVFVGLAKDSKILVDTIPLIFNAVKIKGSIVGSRLDVNEAMDFVARGAVNVPLELVKLEDVAEVYTKMHDGKINSRVVVDFSL
- soluble on expression in E. coli: not soluble

Sequence: SNAMNHLPEKMRPYRDLLEKSAKEYVKLNVRKGKTGRYDSKIAGDPYFPKHETYPTDENGQPMKLLAQINFSHIPQLDGYPSSGILQFYISVHDDVYGLNFDDRCEQKNFRVIYFENIVENDDELVSDFSFIGTGECDFPILSEAAVEPVKSSEWVLPTDFQFEQYTGMETMEFFGQFGEDEEDIYNELAENGFGHKIGGYASFTQHDPREYAYKEHTIMLLQIDSDDDIDSMWGDVGIANFFITPEDLRKKDFSNVLYNWDCS
- soluble on expression in E. coli: soluble

Sequence: MAHHHHHHMDATELKNKGNEEFSAGRYVEAVNYFSKAIQLDEQNSVLYSNRSACFAAMQKYKDALDDADKCISIKPNWAKGYVRRGAALHGMRRYDDAIAAYEKGLKVDPSNSGCAQGVKDVQVAKAREARDPIARVFTPEAFRKIQENPKLSLLMLQPDYVKMVDTVIRDPSQGRLYMEDQRFALTLMYLSGMKIPNDGDGEEEERPSAKAAETAKPKEEKPLTDNEKEALALKEEGNKLYLSKKFEEALTKYQEAQVKDPNNTLYILNVSAVYFEQGDYDKCIAECEHGIEHGRENHCDYTIIAKLMTRNALCLQRQRKYEAAIDLYKRALVEWRNPDTLKKLTECEKEHQKAVEEAYIDPEIAKQKKDEGNQYFKEDKFPEAVAAYTEAIKRNPAEHTSYSNRAAAYIKLGAFNDALKDAEKCIELKPDFVKGYARKGHAYFWTKQYNRALQAYDEGLKVDPSNADCKDGRYRTIMKIQEMASGQSADGDEAARRAMDDPEIAAIMQDSYMQLVLKEMQNDPTRIQEYMKDSGISSKINKLISAGIIRFGQ
- soluble on expression in E. coli: soluble

Sequence: MVNLELIEVQEGKAKILIPKAESIYDSPVFYNPRMALNRDIVVVLLNILNPKIVLDALSATGIRGIRFALETPAEEVWLNDISEDAYELMKRNVMLNFDGELRESKGRAILKGEKTIVINHDDANRLMAERHRYFHFIDLDPFGSPMEFLDTALRSAKRRGILGVTATDGAPLCGAHPRACLRKYLAVPLRGELCHEVGTRILVGVIARYAAKYDLGIDVILAYYKDHYFRAFVKLKDGARKGDETLEKLGYIYFDDKTGKFELEQGFLPTRPNAYGPVWLGPLKDEKIVSKMVKEAESLSLARKKQALKLLKMIDQELDIPLFYDTHAIGRRLKIETKKVEEIISALREQGYEATRTHFSPTGIKTSAPYEVFIETIKRI
- soluble on expression in E. coli: soluble

Sequence: MGSDKIHHHHHHMKQPLAHRMRPTNIQEIIGQQHLVGEGKILWRMVQANHFQSMILYGPPGTGKTSIASAIAGSTGTPFRLLNAVTHNKKDMEVVVQEAKMHRHLVLILDEVHRLDKAKQDFLLPHLESGLLTLIGATTSNPFHAINSAIRSRCQIFELHALTEDDLLIGLKRALEDKEKGLGEYDVTVTPEALHHFANASGGDMRSAYNALELAVLSSFTTDDKAAEITLEIAEECLQKKSFVHDKGGDAHYDVLSAFQKSVRGSDVNAALHYLARLIEAGDLQSIGRRLLIMAYEDIGLASPQAGPRTLAAIESAERVGFPEARIPLANAVIELCLSPKSNSAYKALDAALHDLRNGQTGDIPSHLKDSHYKGAEALGRGIGYLYPHDHPNGWVQQQYLPDKIKNKQYYKPKMTGKFEQALSTVYERLQSSNKTKNKG
- soluble on expression in E. coli: not soluble

Sequence: MGSDKIHHHHHHMISQFIDRKRELAILEREWKNTPSFVVIYGRRRVGKTRLLVEFSKGKKVFFYTFMEGTKESQVKSLAKELVDFFNDEIFLSFSDWYPLFKYLSGKLMEKTLFVFDEFTYAVKSDRSILSALQRVWDHELSYKPVMLVLSGSLMGIMEDNVLSHSSPLYGRRTAGFRLRSLGLFPSLRFFKSPIEGLKFYMLLGGIPAYLIIASRYETVGEFVEREFLTPEGYFYDEPYIVLSELKELKTYFSILSAMSSGRRRPSEIASEVGLEGRKIYPYLETLIRLGFVERELPIARKEKRGLYRISDPMLMSWFSLIYPNRTEIELGTITLERVEKILQRIFSFRFEDVSREFLVEMNKAGKLPFRFTKIGRWWYKGEEIDLVALNEDEEKALFIEVKWKDLKEREVKGILKDLEKKAGLVGLDGWDKNYGLIEKSIERKEKLREENYLVWDLKDFDALKILSQ
- soluble on expression in E. coli: not soluble

Sequence: MQYIKIHALDNVAVALADLAEGTEVSVDNQTVTLRQDVARGHKFALTDIAKGANVIKYGLPIGYALADIAAGEHVHAHNTRTNL
- soluble on expression in E. coli: soluble

Sequence: MGSDKIHHHHHHMTETWNFINTGSKDPYYNMAMDEALLNFVSRGEIDPVIRFYTWNPATLSIGYFQRLQKEIDIDKVKEKGFGLVRRQTGGRGVLHDKELTYSVIVPESHPNMPSTVTEAYRVISQGLLEGFKNLGFNTYFAVPKTPEERQKLKQPRSSVCFDAPSWYELVVEGRKIAGSAQTRQKGVILQHGSILQDIDIDELFDMFIYKNERLKLKMKEAFVEKAVAINDISDKHITISQMEEAFEKGFKKGLNIELKPLELTEAQLAEVEELTEKYRSDEWMFRK
- soluble on expression in E. coli: not soluble

Sequence: TETSPDKWLIDGDTPLDEVERAIGYELPEGDYETISGLLFDHANALLKTGDVIEIPLDFEPEDYLNNTSPTQRILRITVLEVERNVPVKLALALLEDHPDNHPAPKENR
- soluble on expression in E. coli: soluble
